Laboratory results reported in US11976099B2, “Compositions and methods for treatment of bone associated diseases” (THE NATIONAL INSTITUTE FOR BIOTECHNOLOGY IN THE NEGEV LTD., priority 2016, dated 2024).
Changes are numbered by the printed parent chain. Numbers in names are those of the source.

Columns and labels:
[1] = BS^3 chemical cross linking / SDS-PAGE dimerization assay; format: physicochemical; conditions: for dimerization after BS^3 cross linking: Example 4, BS^3 up to 2500 μM, FIG. 8; for monomer/dimer bands after BS^3 cross linking: Example 11, BS^3 0-2500 μM, SDS-PAGE, FIG. 16A
Method: Then, Tris was added to a final concentration of 30 mM and the mixture was incubated for 15 min at room temperature. Samples were denaturized and loaded on 15% SDS-PAGE. The gels were stained with coomassie blue (InstantBlue, Expedeon, CA, USA) and visualized with MiniBis pro (DNR Bio-Imaging Systems, Jerusalem, Israel).
BS^3 crosslinking assay—Human (4 μg) and murine M-CSFWT (1 μg), M-CSFC31S (1 μg) and M-CSFC31S,M27R (2.5 μg) were incubated with different concentrations of BS^3 [bis(sulfosuccinimidyl)suberate] (ThermoFisher Scientific, MA, USA) cross linker (0, 25 μM, 100 μM, 250 μM, 500 μM, 1000 μM and 2500 μM) for 30 min at room temperature. Then, […] was added to a final concentration of 30 mM, and the mixture was incubated for 15 min at room temperature. Samples were denaturized with sample buffer, boiled, and loaded on 15% SDS-PAGE for protein separation. The gels were stained with InstantBlue staining (Expedeon, CA, USA) for 40 min, followed by two washing steps with double distilled water. The gels were visualized with MiniBis pro (DNR Bio-Imaging Systems, Jerusalem, Israel).
Experiments were conducted in order to verify that the purified variants are incapable of dimerizing. The purified variants were incubated with a cross linker reagent (BS^3 [bis(sulfosuccinimidyl)suberate]) to enhance and visualize non-covalent intermolecular interactions. Following incubation, the reactions were stopped and the samples were loaded in denaturized conditions on a protein gel.
To validate the structural and computational analysis and to verify that M-CSFC31S,M27R is indeed a monomer, several biophysical assays were conducted. First, purified murine and human M-CSFWT, M-CSFC31S and M-CSFC31S,M27R were crosslinked via lysine residues using different amounts of BS^3 reagent [bis(sulfosuccinimidyl)suberate], and the proteins sizes were evaluated using SDS-PAGE (FIG. 16A). Murine M-CSFWT served as positive control, since it has a lysine in the dimerization site (K68), which facilitates the intermolecular cross-linking of the two monomers in the dimer. […] The dimer band became more prominent at higher BS^3 concentrations. It is likely that the non-covalent dimerization allows other lysines in M-CSFC31S to come into close proximity and crosslink.

[2] = tested on: murine bone marrow derived monocytes (BMMs) differentiating to osteoclasts; assay: Osteoclast differentiation assay of murine BMMs (TRAP staining); format: cell-based, mouse; conditions: for effect on osteoclast differentiation/formation: Example 9, FIG. 13, varying concentrations, five days; for number of osteoclasts and number of nuclei / osteoclast formation: Example 14; for osteoclast formation: 50, 1000 and 5000 nM with M-CSFWT and RANKL
Method: Primary cells differentiation assay—Murine primary cells were obtained as described in the murine primary cells section. Cells were washed with PBS and detached using a cell scraper, and 20,000 cells were plated in each well of a 96-well plate. Osteoclast differentiation was induced by culturing the cells in α-MEM containing 10% of fetal bovine serum (FBS), penicillin and streptomycin, […] M-CSF and 20 ng/ul RANKL (R&D Systems, USA). To determine the influence of the M-CSFRGD variants and the M-CSFM on the osteoclasts, the proteins were added to the differentiation medium (with M-CSF and RANKL) in three different concentrations (50 nM, 1 μM and 5 μM). After 72-96 h, once the cells had differentiated fully, they were fixated with 4% paraformaldehyde and stained using the tartrate-resistant acid phosphatase (TRAP) staining kit (Sigma-Aldrich, USA) according to manufacturer's protocol. As a positive control, PBS was used instead of the inhibitors, and negative controls comprised cells incubated in differentiation medium without RANKL and inhibitors. […] Cells in each image were counted in a double-blind manner and the number of nuclei in the osteoclasts and the total osteoclast surface area were determined using ImageJ software. Three repeats were performed for every condition, and each repeat was normalized to the positive control values.
Differentiation assay—BMMs and CD14+ cells were obtained and grown as described above. The plates containing the monocytes were washed with PBS; the cells were detached using a cell scraper for BMMs or Accutase (Biological industries, Israel) for CD14^+; and 2×10^4 BMMs or 1×10^4 CD14^+ cells were transferred to each well in a 96-well plate. Osteoclast differentiation was induced as described in the ‘phosphorylation assay’ section. To determine the influence of M-CSFC31S and the M-CSFC31S,M27R on osteoclast differentiation, the proteins were added to the differentiation medium (with M-CSF and RANKL) in different concentrations (50 nM, 1 μM and 5 μM for BMMs and 50 nM, 250 nM and 1 μM for CD14^+). To determine the influence of human M-CSFWT on the differentiation, it was added to the cells in different concentrations (50 nM 1 μM and 5 μM) without adding murine M-CSFWT. Once the cells were fully differentiated, they were fixed with 4% paraformaldehyde and stained using the tartrate-resistant acid phosphatase (TRAP) staining kit (Sigma-Aldrich, USA) according to the manufacturer's protocol. As the positive control, cells were incubated with M-CSF and RANKL without inhibitors, and the negative control was comprised of cells that were incubated in differentiation medium without RANKL. […] Cells in each image were counted in a double-blind manner, and the number of nuclei in the osteoclasts was determined using ImageJ software. For the positive control of BMMs, an average of 28.33 osteoclasts and 135 nuclei per well were counted. For CD14^+ positive control, the average numbers of osteoclasts and nuclei were 14.5 and 75, respectively, per well. The results for each parameter were normalized to the positive control values.
Murine bone marrow monocytes were purified from the bone marrow of eight- to twelve-week-old mice and were seeded for osteoclast differentiation in the presence of recombinant M-CSF and RANKL for 72-96 h. […] At the end of the differentiation period, osteoclasts were fixed and stained for Tartrate resistant acid phosphatase activity (TRAP). Osteoclast differentiation and spreading were evaluated in terms of three parameters: number of osteoclasts, number of nuclei in osteoclasts and osteoclast surface area.
The positive control contains a differentiation medium with both M-CSF WT and RANKL. The negative control contains only […], which keeps the cells alive though not differentiated. Varying concentrations of M-CSFM and M-CSFM,M27R were added to the cells, that were grown for five days. Then the cells were fixated and stained using TRAP staining for differentiated osteoclasts. […]

B1: M-CSFM: 158 amino acid M-CSF with cysteine at position 31 replaced by serine (SEQ ID NO: 2) (protein)
chain: EEVSEYCSHMIGSGHLQSLQRLIDSQMETSSQITFEFVDQEQLKDPVCYLKKAFLLVQDIMEDTMRFRDNTPNAIAIVQLQELSLRLKSCFTKDYEEHDKACVRTFYETPLQLLEKVKNVFNETKNLLDKDWNIFSKNCNNSFAECSSQGHERQSEGS
[1]
  dimerization after BS^3 cross linking: some dimerization interactions
  monomer/dimer bands after BS^3 cross linking: mixture of monomer and dimer bands
[2]; BMMs, 5000 nM
  number of osteoclasts and nuclei at 5000 nM: reduction in both osteoclasts and nuclei number
[2]; Example 8, 50 nM, 1 μM and 5 μM with M-CSF and RANKL, 72-96 h
  effect on osteoclast differentiation: markedly enhanced osteoclast differentiation
[2]
  effect on osteoclast differentiation/formation: acts as an inducer for osteoclast differentiation
[2]; BMMs
  number of osteoclasts and number of nuclei: the opposite result
  osteoclast formation: highly accelerated in the two lower concentrations

B2: M-CSFC31S,M27R: M-CSF double mutant containing both C31S and M27R; monomeric, monospecific c-FMS antagonist (protein)
chain: B1 chain with M27R
[1]
  monomer/dimer bands after BS^3 cross linking: did not produce any band corresponding to a dimer
[2]
  effect on osteoclast differentiation/formation: inhibits osteoclast formation in a dose dependent manner
[2]; BMMs
  number of osteoclasts and number of nuclei: a decrease in both parameters, in a dose-dependent manner
  osteoclast formation: significantly inhibited, in a dose-dependent manner

B3: M-CSFWT: wild-type human M-CSF, disulfide-bond-linked homodimer which binds and activates c-FMS (protein)
chain: B1 chain with S31C
[1]
  monomer/dimer bands after BS^3 cross linking: only a faint band in a size that corresponds to a dimer
[2]; BMMs, 50, 1000 and 5000 nM without murine M-CSFWT
  numbers of osteoclasts and their nuclei: inhibits both the numbers of osteoclasts and their nuclei, in a dose dependent manner

B4: 5.6: bispecific M-CSFRGD variant from sort five; M-CSFM loop replaced by XXXRGDXXX motif; binds c-FMS and αvβ3 integrin (protein)
chain: EEVSEYCSHMIGSGHLQSLQRLIDTYPRGDMCSITFEFVDQEQLKDPVCYLKKAFLLVQDIMEDTMRFRDNTPNAIAIVQLQELSLRLKSCFTKDYEEHDKACVRTFYETPLQLLEKVKNVFNETKNLLDKDWNIFSKNCNNSFAECSSQGHERQSEGS
modifications: left off: small tags and cut ends
[1]
  dimerization after BS^3 cross linking: did not show any dimerization
